*: point of attachment. Biotin = O=C1N[C@H]2[C@H](CS[C@H]2CCCCC(=O)*)N1; Ahx = NCCCCCC(=O)O

The target in one experiment is T1, EGFR (Homo sapiens, UniProt P00533).
T1 construct: tested them in a model HMEC cell system; endogenous in cells; host or cells: 184A1 human mammary epithelial cells (HMECs)
The experiment in a line: Cyclic polypeptide inhibition of EGFR phosphorylation in model HMEC cell system. It counts as cell-based. The settings on record: biotinylated cyclic polypeptide. The text has this:
We selected amino acid sequences corresponding to fragments of Domain II and Domain IV of EGFR. The sequence of each polypeptide is shown in the first column of Table 1. The polypeptides were chosen based on their positions on the crystal structures of monomeric and dimeric EGFR (Burgess et al., Mol. Cell 12:541-552, 2003). Although Domain IV of EGFR is not resolved in the dimer crystal structure, it is believed that portions of Domain IV come into contact upon dimerization. […] We generated biotinylated cyclic polypeptides that included each sequence and tested them in a model HMEC cell system. The sequences of the biotinylated cyclic polypeptides are shown in the third column of Table 1. […] For the LYNPTTYQMD polypeptide, the different results obtained from polypeptide and polyclonal antisera inhibition could be due to differences in the quantitative details of the assays, or the polypeptide could have a lower affinity for the receptor than the polyclonal antisera does.

For experiment [1], the target named is T2, Biotin-Aha-CMGENNTG-CONH2 (SEQ ID NO:10) (also: called cyclic, ring not described).
T2 construct: also called EGFR Domain IV (576-581) peptide
T2 peptide: {Biotin-Ahx}-CMGENNTG-NH2
The experiment in a line: yeast surface display screen of naive human library against the peptide (1 round MACS, 3 rounds FACS); clone isolated as specific binder.

Experiment [2] addresses T3, Biotin-GCAHYIDGPHCG-CONH2 (SEQ ID NO:9) (not fully specified (bridges); printed as Biotin-GCAHYIDGPHCG-; also: cyclic (type of ring not given here)).
T3 construct: Biotinylated cyclic polypeptide; also called EGFR Domain IV (558-567) peptide
T3 peptide: Biotin-GCAHYIDGPHCG-NH2
Described as above.

For experiment [3], the target named is T4, Biotin-GCRNVSRGRECG-CONH2 (SEQ ID NO:8) (not fully specified (bridges); printed as Biotin-GCRNVSRGRECG-; also: cyclic (ring type and places not given here)).
T4 construct: Biotinylated cyclic polypeptide; also called EGFR Domain IV (502-511) peptide
T4 peptide: Biotin-GCRNVSRGRECG-NH2
The description is as above.

Experiment [4] concerns the target T5, Biotin-GCGLYNPTTYQMDGCG-CONH2 (SEQ ID NO:7) (not fully specified (bridges); printed as Biotin-GCGLYNPTTYQMDGCG-; also: cyclic (type of ring not given here)).
T5 construct: Biotinylated cyclic polypeptide tested on HMECs; also called EGFR Domain II (245-254) peptide
T5 peptide: Biotin-GCGLYNPTTYQMDGCG-NH2
The description is as above.

In experiment [5] the target is T6, Biotin-GCLVWKYADAGCG-CONH2 (SEQ ID NO:11) (not fully specified (bridges); printed as Biotin-GCLVWKYADAGCG-; also: cyclic (ring type and places not given here)).
T6 construct: Biotinylated cyclic polypeptide; also called EGFR Domain IV (582-590) peptide
T6 peptide: Biotin-GCLVWKYADAGCG-NH2
The experiment is described as above.

Consider CRNVSRGREC [Biotin-GCRNVSRGRECG-CONH2], for which the “Peptide Inhibition” value on EGFR is recorded as “Yes”. The same measure, in the same setting: the entry for CAHYIDGPHC [Biotin-GCAHYIDGPHCG-CONH2] is “Yes”; for LVWKYADAG [Biotin-GCLVWKYADAGCG-CONH2] it is “Yes”.

As for “LYNPTTYQMD [Biotin-GCGLYNPTTYQMDGCG-CONH2]”, the “Peptide Inhibition” value at EGFR was “No”.

B1: SEQ ID NO 37 (other)
VH: QVQLQESGPGLVKPSETLSLTCTVSGGSISNSDYYWGWIRQPPGKGLRWIGSINYYGTTYYNPSLKSRVAMSVDTSKNQFSLKLSSVTAADTAVYYCARRGANSWFFDLWGRGTLVTVSSGILGSGGGSGGGGSGGGGLQEF
notes: also called VH clone isolated against MGENNT
For the molecule B1, in experiment [1], the binding result was “binds”.

B2: SEQ ID NO 28 (scFv)
scFv: QVQLQQSGPGLVKPSQTLSLTCAISGDSVSSNSAAWNWIRQSPSRGLEWLGRTYYRSKWYNEYAVSVKSRITINPDTSKNHFSLQLNSVTPEDTAVYYCAREIVGTPFDYWGQGTLVTVSSGILGSGGGGSGGGGSGGGGSDIRVTQSPSSLSASVGDRVTITCRTSQSASKYVNWYQQKPGKVPKLLIYAASSLQSGVPSRFSGSGSGTHFTLSISNLQPGDMGTYYCQQGYGTPLTFGGGTKLEIKSGF
For B2, in experiment [2], the binding result is given as “binds”.

B3: SEQ ID NO 21 (other)
VH: QVQLQQWGPGLLKPSETLSLTCGVSGGSLSGYYWSWIRQSPGKELEWIGEINQGGSTNYNPSLRSRVTISVDTSKKQLSLKVNSVTASDTAVYYCARETFRGSNCFDSWGQGTLVTVSSGILGSGGGIGGGGSGGGGLQEF
In the case of B3, the binding result in experiment [3] is recorded as “binds”.

B4: SEQ ID NO 35 (scFv)
scFv: QVQLVESEGRLVKPGGSLRLSCVASGMTFNNAWMSWVRQAPGKGLEWVGRIRSESNGGTTDYAAPGKGRFTISRDDSKNTLYLQMNSLQIEDTAVYYCATDRGYSNSGNYYRHYWGQGTLVTVSSGILGSGGGGSGGGGSGGGGSDIRLTQSPSSLSASVGDRVTITCQASQDISNYLNWYQQKPGKAPKLLIYDASNLETGVPPRFSGSGSGTAFTFTISSLQPEDFATYYCQQYDNLPHTFGPGTKVDIKSGILEQKLISEEDL
Consider B4, for which, in experiment [2], the binding result was “binds”.

B5: SEQ ID NO 18 (other)
VH: QVQLVQSEGGVVQPGRSLRLSCAASGFTFSSYAMHWVRQAPGKGLEWVAVISYDGSNKYYADSVKGRFTISRDNSKNTLYLQMNSLRAEDTAVYYCARDEGYYGSGCIDYWGQGTLVTVSSGILGSGGGSGGGGSGGGGLQEF
As to B5, the binding result in experiment [4] is reported as “binds”.

B6: SEQ ID NO 27 (scFv)
scFv: QITLKESGPTLVKPTQTLTLTCTFSGFSLSTNGVGVGWIRQPPGKALEWLALIYWNDDKRYSPSLKRRLTITKDTSKNQVVLTMTNMDPVDTATYYCAHRLLDSGYILPPTFDYWGQGTLVTVSSGILGSGGGGSGGGGSGGGGSEIVLTQSPGTLSLSPGERATLSCRASQSVNSGYLAWYQQKPGQAPRLLISAASSRATGIPDRFSGSGSGTDFTLTISRLEPEDFAVYYCQRYDTSRGFTFGPGTKVDIKSGF
As to B6, the binding result in experiment [2] is “binds”.

B7: SEQ ID NO 19 (other)
VH: QVQLVQSEGGVVQPGRSLRLSCAAPGFTFSSYAMHWVRQAPGKGLEWVAVISYDGSNKYYADSVKGRFTISRDNSKNTLYLQMNSLRAEDTAVYYCARDEGYYGSGCIDYWGQGTLVTVSSGILGSGGGGSGGGGSGGGGLQEF
As to B7, the binding result in experiment [4] is listed as “binds”.

B8: SEQ ID NO 38 (other)
VH: QITLKESGPTVVKPTQTLTLTCTFSGFSLSTSGVGVGWIRQPPGKALEWLALISWDDDKRYSPSLKSRLTITKDTSKNQVVLTMTNMDPVDTATYFCAHLNNFVDAIELRTGWCFDVWGRGTLVTVSGILGSGGGGSGGGGSGGGVLKLC
Regarding B8, the binding result in experiment [5] was “binds”.

B9: SEQ ID NO 39 (other)
VH: QITLKESGPTVVKPTQTLTLTCTFSGFSLSTSGVGVGWIRQPPGKALEWLALISWDDDKRYSPSLKSRLTITKDTSKNQVVLTMTNMDPVDTATYFCAHLINFVDAIELRTGWCFDVWGRGTLVTVSGILGSGGGGSGGGGSGGGVLKLR
B9: in experiment [5], the binding result is reported as “binds”.

B10: SEQ ID NO 36 (other)
VH: QVQLQESGPGLVKPSETLSLTCTFSGGSIRSSSDYWGWVRQPPGKGLEWIGSISSSGSTYYNPSLKSRVTISVDTSRNQFSLRLSSVTAADTAIYYCARYNHYWYFDLWGRGTLVTVSSGILGSGGGSGGGGSGGGGSKRHSRSLQHSSQRLQETKSTSPAKPAKTLMMI
notes: as for B1
As for B10, the binding result in experiment [1] is reported as “binds”.

B11: SEQ ID NO 20 (other)
VH: QVQLQQSGPGLVKPSQTLSLTCDISGDSVSSDSAAWNWIRLSPSRGLEWLGRTYYWSKWYTDYAVSVKSRITINPDTSKNQFSLQLNSVTPEDTAVYFCARERYCSSTSCYLDAFDIWGQGTMVTVSGILGSGGGGSGGGGSGGGGLQEF
On to B11, for which, in experiment [3], the binding result is on record as “binds”.

The record behind these values is US20070009972A1, “Epidermal growth factor receptor polypeptides and antibodies” (priority 2005, published 2007).
